Results: patent publication US20090311271A1

Experiments:
[1] = target: human LOX-1 expressed on the cell surface (human) (UniProt P78380); test: flow cytometry: DI-oxLDL (0-100 ug/ml) on CHO/LOX-1 cells, 60 min at 4 C; y axis MFI Signal
[2] = target: human LOX-1 expressed on the cell surface (human) (UniProt P78380); test: flow cytometry, DI-oxLDL on CHO/LOX-1 cells
[3] = target: human LOX-1 expressed on the cell surface (human) (UniProt P78380); test: flow cytometry: DI-oxLDL (0-100 ug/ml) on CHO/LOX-1 cells, 60 min at 4 C, MFI
[4] = target: purified recombinant human LOX1 comprised of the extracellular domain (ECD) of human LOX-1 (amino acids 61-273) with an N-terminal polyhistidine tag (human) (UniProt P78380); test: AlphaScreen competition on His-LOX-1, unlabelled competitor titrated; labelled ligand biotin-CRP (1 ug/ml) with His-LOX-1 (1 ug/ml) by the panel list of paragraph 265; later sentences of paragraph 265 cite 2B and 2C the other way and the sheet prints no title

A Bmax [1] of 96.6, a Kd [2] of 22 µg/mL and a Kd [3] of 22 µg/mL were found for Human oxidized LDL in this work. The IC50 (read off the curve) [4] was 0.2 µg/mL.
